Assay [1] concerns the target IgM-Fc (Fcμ2-4) mutant M2 (Q510R) (human). In words: SEC-MALS; SEC-MALLS on Superdex 200 Increase 5/150 with in-line miniDAWN detector and refractometer; peaks of the homodimeric Fcμ2-4 proteins from SEC.
For assay [2], the target named is IgM-Fc (Fcμ2-4) mutant M3 (D340S/Q341G/D342S/T343S) (human). The description is as above.
For assay [3], the target named is IgM-Fc (Fcμ2-4) wild-type, dimer of Cμ2-Cμ3-Cμ4 domains (human). The assay is described as above.
Assay [4] has as its target Fcμ3-4, dimer of Cμ3-Cμ4 domains (human). In words: SPR; Biacore T200, 25 °C, 0.01 M HEPES, 0.15 M NaCl, 0.005% Surfactant P20, pH 7.4; IgM, IgM-Fc, Fcμ3-4 or IgM-Fc mutants immobilised on CM5 by amine coupling; analyte sIgFcμR 0.25 μM to 12 μM; steady state, 1:1 binding model. A general note: SPR reads the build-up and loss of mass on a sensor chip optically.
Assay [5] addresses IgM-Fc (Fcμ2-4) wild-type, dimer of Cμ2-Cμ3-Cμ4 domains (human). The assay is described as above.
Assay [6] deals with purified serum IgM (whole pentameric IgM) (human). The assay is described as above.
In assay [7] the target is IgM-Fc (Fcμ2-4) mutant M3 (D340S/Q341G/D342S/T343S) (human). The assay is described as above.
The target in assay [8] is IgM-Fc (Fcμ2-4) wild-type, dimer of Cμ2-Cμ3-Cμ4 domains (human). The description is as above. This is another data set of the same source.
Assay [9] concerns the target IgM (Homo sapiens) (UniProt P01871). Particulars: cited from earlier work.
Assay [10] addresses IgM-Fc (Fcμ2-4) mutant M1 (K361D/D416R) (human). In words: SEC-MALS; SEC-MALLS on Superdex 200 Increase 5/150 with in-line miniDAWN detector and refractometer; peaks of the homodimeric Fcμ2-4 proteins from SEC. For orientation: SEC sorts molecules by how far they enter the pores of the column.

Read-outs that look alike come from different tables or passages of the source.

Sequence of Fcμ3-4, dimer of Cμ3-Cμ4 domains (human) (P01871 other isoform, or with tags, fused parts or gaps): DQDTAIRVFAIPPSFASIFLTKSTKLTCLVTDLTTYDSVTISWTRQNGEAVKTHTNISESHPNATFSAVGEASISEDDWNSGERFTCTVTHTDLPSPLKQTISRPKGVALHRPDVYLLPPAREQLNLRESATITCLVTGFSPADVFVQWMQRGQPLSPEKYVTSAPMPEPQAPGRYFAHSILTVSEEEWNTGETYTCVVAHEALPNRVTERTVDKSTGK
Sequence of IgM (Homo sapiens) (P01871 whole entry): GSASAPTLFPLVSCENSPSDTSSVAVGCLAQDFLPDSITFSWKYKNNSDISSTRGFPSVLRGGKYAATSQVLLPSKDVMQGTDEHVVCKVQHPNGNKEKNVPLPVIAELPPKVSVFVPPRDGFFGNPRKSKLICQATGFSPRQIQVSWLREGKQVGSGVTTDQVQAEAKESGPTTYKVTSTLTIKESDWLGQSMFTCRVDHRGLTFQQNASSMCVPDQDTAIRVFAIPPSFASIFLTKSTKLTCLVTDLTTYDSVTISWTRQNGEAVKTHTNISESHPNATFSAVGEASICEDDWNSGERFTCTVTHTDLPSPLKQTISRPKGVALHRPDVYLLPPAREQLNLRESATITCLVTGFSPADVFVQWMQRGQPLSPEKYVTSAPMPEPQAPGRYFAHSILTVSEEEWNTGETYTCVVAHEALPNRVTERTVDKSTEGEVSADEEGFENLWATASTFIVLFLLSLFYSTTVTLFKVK
Sequence of FcμR (cell surface) (O60667 17-390): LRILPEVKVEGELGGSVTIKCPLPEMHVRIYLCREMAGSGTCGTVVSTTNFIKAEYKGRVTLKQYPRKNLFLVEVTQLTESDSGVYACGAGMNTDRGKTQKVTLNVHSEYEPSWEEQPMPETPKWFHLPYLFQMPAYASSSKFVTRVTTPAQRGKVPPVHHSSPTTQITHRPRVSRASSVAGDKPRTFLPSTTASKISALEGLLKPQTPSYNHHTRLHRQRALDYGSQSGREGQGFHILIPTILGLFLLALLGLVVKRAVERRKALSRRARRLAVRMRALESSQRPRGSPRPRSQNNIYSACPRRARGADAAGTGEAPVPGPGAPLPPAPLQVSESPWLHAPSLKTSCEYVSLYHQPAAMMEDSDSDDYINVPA

As usually defined, the stoichiometry N is a count of units in the complex or per binding partner. The substance “IgM-Fc (Fcμ2-4) mutant M2 (Q510R) (domain or fragment)” returned a stoichiometry N in assay [1] of 2.
On to “IgM-Fc (Fcμ2-4) mutant M3 (D340S/Q341G/D342S/T343S) (domain or fragment)”, for which, in assay [2], the stoichiometry N worked out at 2.
Consider “IgM-Fc (Fcμ2-4) wild-type, dimer of Cμ2-Cμ3-Cμ4 domains (domain or fragment)”, for which the stoichiometry N in assay [3] turned out to be 2.
One may read the Kd as the equilibrium constant for the complex coming apart. For “soluble extracellular immunoglobulin-like domain of FcμR (domain or fragment)”, the stoichiometry N (sIgFcμR per IgM-Fc homodimer) in [4], in assay [5] and in assay [6] was 2 in each case. The dissociation constant (Kd) came to 1150 nM in [5], 2490 nM in [6], 1450 nM in assay [7] and 1830 nM in [8].
“FcμR (cell surface) (from UniProt O60667)”: the dissociation constant (Kd) in [9] is 10 nM.
As for “IgM-Fc (Fcμ2-4) mutant M1 (K361D/D416R) (domain or fragment)”, in assay [10], the stoichiometry N was 2.

The record behind these values is PMC6905151.
